# Data taken from patent US20180207087A1, “KIT AND AESTHETIC SYSTEM FOR PREVENTION OF SKIN AGING” (priority 2017, published 2018).
# Tested on: adipose tissue
# Type: in vivo, human
# Description: Thus, by adjusting the single dose of hyaluronidase in the injection composition for topical fat removal of the present invention to 300 IU to 600 IU, the side effects from using the drug are minimized and yet fat removal over a wide area can be carried out using a minimal volume. It has been shown in clinical trials that at a hyaluronidase activity of 300 IU and an injection volume of 1 cc, the diameter of the diffusion range for the injection composition is about 1 cm. Thus, by injecting the composition at narrow intervals between injection points of 0.5 to 2 cm, even fat removal as well as collagen production by skin stimulation can be facilitated.
substance,measurement,setting,value
hyaluronidase,"amount at which adipose cells are excessively hydrolyzed, causing concerns about dimpling or subcutaneous bleeding","human, in vivo, sc",above 600 IU
same,minimum amount of hyaluronidase exhibiting efficacy,single dose,300 IU
